B1: ClpP (enzyme)
chain: not shown
B2: ClpA (enzyme, E. coli, UniProt P0ABH9 1-758, looked up)
chain: MLNQELELSLNMAFARAREHRHEFMTVEHLLLALLSNPSAREALEACSVDLVALRQELEAFIEQTTPVLPASEEERDTQPTLSFQRVLQRAVFHVQSSGRNEVTGANVLVAIFSEQESQAAYLLRKHEVSRLDVVNFISHGTRKDEPTQSSDPGSQPNSEEQAGGEERMENFTTNLNQLARVGGIDPLIGREKELERAIQVLCRRRKNNPLLVGESGVGKTAIAEGLAWRIVQGDVPEVMADCTIYSLDIGSLLAGTKYRGDFEKRFKALLKQLEQDTNSILFIDEIHTIIGAGAASGGQVDAANLIKPLLSSGKIRVIGSTTYQEFSNIFEKDRALARRFQKIDITEPSIEETVQIINGLKPKYEAHHDVRYTAKAVRAAVELAVKYINDRHLPDKAIDVIDEAGARARLMPVSKRKKTVNVADIESVVARIARIPEKSVSQSDRDTLKNLGDRLKMLVFGQDKAIEALTEAIKMARAGLGHEHKPVGSFLFAGPTGVGKTEVTVQLSKALGIELLRFDMSEYMERHTVSRLIGAPPGYVGFDQGGLLTDAVIKHPHAVLLLDEIEKAHPDVFNILLQVMDNGTLTDNNGRKADFRNVVLVMTTNAGVRETERKSIGLIHQDNSTDAMEEIKKIFTPEFRNRLDNIIWFDHLSTDVIHQVVDKFIVELQVQLDQKGVSLEVSQEARNWLAEKGYDRAMGARPMARVIQDNLKKPLANELLFGSLVDGGQVTVALDKEKNELTYGFQSAQKHKAEAAH

What was measured:
cryo-EM structure = biological target: the molecule itself; test: cryo-EM structure
ClpA = biological target: B2; test: cryo-EM structure

B1
stoichiometry N (cryo-EM structure): 14 | binding result (ClpA): binds

B2
stoichiometry N (cryo-EM structure): 6

— PMC7529148 (Nature structural & molecular biology, 2020)
